Data from the nanobody polyreactivity screen of Harvey et al. (2022).

Experiment: yeast display, Sf9 membrane polyspecificity reagent, FACS + sequencing; frameworks hold sequencing errors
Summary of the method: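 Polyreactivity labels are assigned by the sorting gate from which each nanobody was recovered. The gates were low and high (top ~1%), set on anti-HA fluorescence for expression and streptavidin fluorescence for reagent binding. Before sorting, galactose-induced (36–48 hours) yeast display cells were stained for 1 hour at 4 °C with 10% biotinylated, detergent-solubilized Sf9 membrane reagent.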

Row | Sequence | polyreactivity (PSR sort gate)
1 | QVQLVESGGGLVQAGGSLRLSCAASGYIFPFYAMGWYRQAPGKQRELVAAITESGGSTYYADSVKGRFTISRDNAKNNVYLQMNSLKPEDTAVYYCAKEVVKHPRGKLDYWGQGTQVTLSS | low polyreactivity
2 | QVHLVESGGGLVQAGGSLRLSCAATGSTFPSYTMGWYRQAPGKERELVAVITLRGGSTYYADSVKGRFTISRDNAKNTVYLQMNSLKPEDTAVYYCAANGQLQGWFDMYYWGQGTQVTVSS | low polyreactivity
3 | QVQLVESGGCLVQAGGTLRLSCAASGFTIRSNAMGWYRQAPGKERELVADISHGGGTSYADSVKGRFTISRDNAKNTVYLQRNSLKPEDTAVYYCAADLSTYVNYWWEYYYWGQGSQVTVSS | low polyreactivity
4 | QVQLVESGGGLVQAGGSLRLSCAASGSILRTYTMGWYRQATGKERELVAAISSSGGRTYYADSVKGRFTISRDNAKNTVYLQMNSLKPEDTAVYYCNAGGYRYRSYDYWGQGTQVTVSS | high polyreactivity
5 | QVQLVESGGGLVQAGGSLRLSCAASGRNFYYYAMGWYRQAPGKERELVATITGGGRTYYADSVKGRFTISRDNAKNTVYLQMHSLHPEDTAVYYCAAQYGGLSYRYDYWGQGTQVTVSS | high polyreactivity
6 | QDQLVDSGAGLLQAGGSLRLSCAASGFTFYGYAMGWYRQAPGKERELVASISWSGGTTYYADSVKGRFTISRDNAKNTVYLQMNSLKPEDTAVYYCNAVRYRYGVFPYYYWGQGTQVTESS | high polyreactivity
7 | QLQLQESGGGLVQAGGSLRLSCAASALITKVYSMGWYRQAPGKERELVAVINSNGGSTYYADSVKGRFTISRDNAQNTVYLQMNSLKPEDTAVYYCRYFRPYGYNYWGQGTQVTVSS | high polyreactivity
8 | QVQLVESGGGLVQAGGSLRLSCAASGSSVYRYAMGWYRQAPGKERELVAAITWSGGSTYYADSVKGRFTISRDNAKNTVYLQMNSLKPEDSAVYYCAVEPFSNEFYYWGQGTQVTVSS | low polyreactivity
9 | QVQLVESGGGLVQAGGSLRLSCAASGITFGRNAMGWYRQAPGKERELVAAISRGGSTNYADSVKGRFTISRDNAKNTVYLQMNSLKPEDTAVYYCAAQYKYRRYPKVAFEYWGQGTQVTVSS | high polyreactivity
10 | QVQLVESGGGLVQAGGSLRLSCAASGRTFDTNAMGWYRQAPGKERELVAVITARGGNTSYADSVKGRFTISRENAKNTVSLQMNSLKPEDTAVYYCAARVYRAPWTYEEGNYWGQGTQVTVSS | low polyreactivity
11 | QVQLVESGGGLVQAGGSLRLSCAASGSIFTPNVKGRYRQAPGKERELVAAISQSGGSTFYADSVKGRFSFSRDNAKKTVYLQMNSLKPEDTAVYYCASEYYGPVYDLDFDYWGQGTQVTVSS | low polyreactivity
12 | QVQLVESWGGLDQAGGSLRLSCAASGRTIRRYAMGCYRQAPGKERELVASISTSGGSTNADSVKGRFTISRDNSKNTVYLQMNSLKPEDTAVYYCAVRYPRYVRNGDYWGQGTQVTVSS | high polyreactivity
13 | QVQLVESGGGLVQAGGSLRLSCAASGSNFKWYAMGWYRQAPGKERELVSAISKSGGSTYYADSVKGRFTISRDNAKNTVYLQMNSLKPEDTAVYYCNAVYIGSRRRYEYDYWGQGTQVTVSS | high polyreactivity
14 | QVQLVESGGGLVQAGGSLRLSCAASGSIFVNNAMGWYRQAPGKERELVAAIRRSGGNTYYADSVKGRFTISRDNAKNTVYLQLNSLKPEDTAVYYCNVVRRSDSIRAKSRDYWGQGTQVTVSS | high polyreactivity
15 | QDQLVESGACLVQAGGRLRLSCAASGFTFYYNAMGWYRQAPGKEREFVAAISRSGGSTTYADSVKGRFTISRDNAMNTGFLEMNSLKPEDTAVYYCNARRYRCKSYDYWGQGTQVTVSS | high polyreactivity
16 | QVQLVESGGGLVQAGGSLRLSCAASGRTFYDYAMGWYRQAPGKERELVAAITYRDGTTYYADSVKGRFTISRDNAKNTVYLQMNSLKPEDTAVYDCGKTYYYSLGHGYNYWGQGTQVTVSS | low polyreactivity

Row | Sequence | polyreactivity (PSR sort gate)
17 | QVQLVESGGGLVQEGGSLRLSCAASGSIFNTYAMGRYRQAPGKEREMVAGITKTGSRTYYADSVKGRFTISRDNAKNTVYLQMNSLKPEDTAVYYCNARIWPRSYRYDYWGQGTQVTVSS | high polyreactivity
18 | QVQLVESGGGLVPAGGSLRLSCAASGSIFVKYALGRYRPAPGKERELVAAISRSGTRTYYADSVKGRFTISRDNAKNTVYLQMNSLKPEDTAVYYCAAAATTVRPYEYWGQGTQVTVSS | high polyreactivity
19 | QVQLVESGGGLVQAGGSLRLSCAASGRTSVIYAMGWYRQAPGKERELVASIRRGGSTSYADSVKGRFTISRDNAKNTVYLQMNSLKPEDTAVYYCAARKRSVYGTEYDYWGQGTQVTVSS | high polyreactivity
20 | QVHLVESGGGLVQAGGSLRLSCAASGRTFRVNAMGWNRKAPGKERELLAAISSRGGTTYYADSVKGRCTISSDYAKNTLYLQMYSLKAEDTAVYYCAAASDRDFPFDYWGQGTQVSVSS | high polyreactivity
21 | QVQVVESGGGLVKAGGSLRLSCDASGSTFRDYVMGWYRQAPGKERELVAAITGSGSSTYYADSVKGRFTISRDNAKNSVYLQMNSLKPEDTAVYYCAATWVVSYRVNRSYYWGQGTQVTVSS | low polyreactivity
22 | QVQLVESGGGLVQAGGSLRLSCAASGLSFRRYAMGWYRQAPGKEREFVATISRRGGSTRYADSVKGRFTISRDNAKNTVYLQMKSLKPEDTAVYYCNKVEYASIAKGYDYWGQGTQVTVSS | high polyreactivity
23 | QVQLVESGGGLVQAGGSLRLSCAASGFIFQYYAMGWYRQAPGKERELVAAITSGGTTYYADSVKGRFTISRDNAKNTVYLQMNSLKPEDTAVYYCAAVFVNFYARFDYWGQGTQVTVSS | low polyreactivity
24 | QVQLVESGGGLVQAGGSIRLSCAASGRTFYGYAMGRYRQAPGKEREFDAAISVGGVSTYYADSVKGRFTISRDNAKNTVYLQMNSLKPEDTAVYYCAAYTRYWSYGYWGQGTQVTVSS | high polyreactivity
25 | QVQLVESVGGLVQAGGSLRLSCAASGFIFAFYAMGWYRQAPGKESELVAAIRTGGSTNYADSVKGRFTISRDNAKNTVYLQMNSLKPEDTAVYYCAAYGRGGYWRWERDYWGLGTQVTVSS | high polyreactivity
26 | QVQLVESGGGLVQAGGSLRLSCAASGRTFTQYAMGWYRQAPGKDRELVAAIDYRGSRTYYADSVKGRFTLTRDKAKNTVYLQMNSLKPEDTAVYYCNTVHRFGTYDYWGEGTQVTVSS | high polyreactivity
27 | QVQLQESGGLVQAGGLRLSCAASGSVSYQEAMGWYRQAPGKERELVATISFGANTNYAESVKGRFTISRDNAKISLYLQMNSLQPEDTSLYYWAAECLFDDYYGYWGQGTQVTVSS | low polyreactivity
28 | QVQLVESGGGLVQAGGSLRLSCAASGSTFRYNTMGWYRQAPGKERELVAAINISSSSTYYADSVKGRFTISRDNAKNTVYLQMNSLKPEDTAVYYCANRDYVPIATDENDDYWGQGTQVTVSS | low polyreactivity
29 | QVQLVESGGGLVQAGGSLRLSCAASGIIFWYYAMGWYRQAPGKERELVASIDWSGGSTYYADSVKGRFTISRDNAKNTVYLQMKSLKPEDTAVYDCNAGSDIYWSAATYGYWGQGTQVTVSS | high polyreactivity
30 | QVQLVESGGGLVQAAGSLRLSCAASGSIFRPYAMGWYRQAPGKERELVATITSRGGSTYYADSVKGRFTISRDNAKNTVYLQMNSMKPEDTAVYYCAARYISSYGRTQDYSRYDYWGQGTQVNVSS | high polyreactivity
31 | QVQLVESGGGLVQAGGSLRLSCAASGIFGVNTMGWYRQAPGKERELVASITSGGSTNYADSVKGRFTISRDNAKNTVYLQMNSLKPEDTAVYYCAAGLYLQGPFDYWGQGTQVTVSS | low polyreactivity
32 | KVQLVESGGVLVQEGGRLRLSCAASGRTFQLNAMGWYRQAPGKEMELVAAISTRGGSTYYADSVKGRFTISRDNAKNSVYLQMNSLKPEDTAGYYCAKDPSFTRGYKEGGGYDYWGQGTQVTVSS | high polyreactivity
